In article PMC3575693:

Target: needle protein MxiH (Shigella flexneri) (UniProt P0A223)
Assay: co-purification with isolated needles, Western blot

UniProt P0A223, sequence (P0A223 whole entry): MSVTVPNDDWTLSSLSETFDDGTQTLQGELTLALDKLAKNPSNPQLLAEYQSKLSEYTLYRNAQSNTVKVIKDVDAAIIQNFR

Question: IpaB (natural protein) was tested. Which % IpaB in needles relative to the complemented strain, in the ipaDL99P strain did it give?
Answer: 100%

Question: What about the % IpaB in needles relative to the complemented strain, in the wild-type strain of the same substance?
Answer: 70%
